Test results as given in publication PMC11615828.

Experiments:
[1] = target: LifeAct‐CFP‐FRB
[2] = target: EMTB‐YFP‐CIBN (UniProt Q8GY61)
[3] = target: EMTB‐CFP‐FRB
[4] = target: EMTB‐YFP‐CIBN (UniProt Q8GY61); remark: listed apart in the source
[5] = target: CFP‐FRB‐MAP4m
[6] = target: EMTB‐CFP‐FRB; remark: listed apart in the source

ACE2‐mNeon‐FKBP was tested, and the internalisation of SARS-CoV2 spike‐Alexa Fluor 647 into ACE2-positive HeLa cells after 2 h, rapamycin 100 nM against DMSO [1] was 89%.
In the case of LAMP1‐mCh‐Cry2, the immobilisation of LAMP1-labelled lysosomes under blue light (half time on) [2] is reported as 6.2 s and the return of lysosome mobility after the end of blue light (half time off) [2] is reported as 68.8 s.
In the case of LAMP1‐mNeon‐FKBP, the motility of LAMP1-labelled lysosomes slowed after rapamycin (half time of the slowing) [3] is reported as 11 s.
TGN38‐mNeon‐FKBP showed a motility of post-Golgi vesicles halted after rapamycin 100 nM (half time) [3] of 9 s.
With mCh‐Cry2‐VAMP2 the immobilisation of VAMP2-labelled vesicles under blue light (half time on) [4] was 7 s and the return of VAMP2 vesicle mobility after blue light (half time off) [4] was 68.1 s.
For mNeon‐FKBP‐IFT88, the movement of IFT88 particles along axonemes in cilia of NIH3T3 cells after rapamycin 100 nM [5] was 20 s.
Substance mNeon‐FKBP‐Rab5b has a motility of endosomes halted after rapamycin 100 nM (half time) [3] of 11.8 s.
For mNeon‐FKBP‐Rab11b, the motility of recycling endosomes halted after rapamycin 100 nM (half time) [3] was 12.5 s.
Substance mNeon‐FKBP‐Rab37 has a motility of exocytic vesicles halted after rapamycin 100 nM (half time) [3] of 12.3 s.
mNeon‐FKBP‐VAMP2 gave an immobilisation of VAMP2-labelled vesicles in COS7 cells after rapamycin 100 nM (half time) [6] of 19.2 s and an immobilisation of VAMP2-labelled vesicles in primary culture cortical neurons after rapamycin 100 nM (half time) [6] of 13.6 s.
